The source of these data is publication PMC6098130.

The target in the assay is IgM-BCR (Ighm) (mouse (endogenous in primary B cells)).

Substance “recombinant mouse galectin-9 (rGal9, E. coli-derived, R&D Systems) (from UniProt O08573 1-353) (natural protein)” displayed a median diffusion coefficient of IgM in galectin-9-high regions (against 0.028 μm^2/s in galectin-9-low regions), single-particle tracking on Gal9-KO B cells treated with fluorescently labeled rGal9 of 0.012 μm^2/s.
